Test results as given in US20210292393A1 (published 2021).

The binders below were run against SARS-CoV-2 full length spike protein, V483A mutant, expressed on the surface of CHO cells (SARS-CoV-2, UniProt P0DTC2 14-1273).

Row | Binder | median fluorescence intensity, fold over isotype control
1 | antibody 324 (antibody, V domains shown) VH: QVQLQESGPGLVKPSGTLSLTCAVSGGSISSSNWWSWVRQPPGKGLEWIGEIYHSGSTNYNPSLKSRVTISVDNSKNQFSLKLSSVTAADTAVYYCARESVAAAGISYYYYGMDVWGQGTTVTVSS VL: EIVLTQSPGTLSLSPGERATLSCRASQSVSGRYLAWYQQKPGQAPRLLIYGASSRATGIPDRFSGSGSGTDFTLTISRLEPEDFAVYYCQHYGSSPGTFGQGTRLEIK | 24.9 fold over isotype
2 | antibody 344 (antibody, V domains shown) VH: QVQLVESGGGVVQPGRSLRLSCAASGFTFSSYAMHWVRQAPGKGLEWMAVISYDGSNKYYADSVKGRFTISRDNSKNTLYLQMNSLRAEDTAVYFCAKGYSGSYYEPFDYWGQGTLVTVSS VL: not shown | 8.15 fold over isotype
3 | antibody 366 (antibody, V domains shown) VH: QVQLVESGGGVVQPGRSLRLSCAASGFTFSSYAMHWVRQAPGKGLEWVAVISYDGSNKYYADSVKGRFTISRDNSKNTLYLQMNSLRAEDTAVYYCARGLVGYNWFDPWGQGTLVTVSS VL: DIQMTQSPSSVSASVGDRVTITCRASQGISSWLAWYQQKPGKAPKLLIYAASSLQSGVPSRFSGSGSGTDFTLTISSLQPEDFATYYCQQANSFTFGPGTKVDIK | 9.74 fold over isotype
4 | antibody 323 (antibody, V domains shown) VH: QVQLVQSGAEVKKPGASVKVSCKVSGYTLTELSMHWVRQAPGKGLEWMGGFDPEDGETIYAQKFQGRVTMTEDTSTDTAYMELSSLRSEDTAVYYCATSTIFAPGGWFDPWGQGTLVTVSS VL: QSALTQPASVSGSPGQSITISCTGTSSDVGSYNLVSWYQQHPGKAPKLMIYEVSKRPSGVSNRFSGSKSGNTASLTISGLQAEDEADYYCCSYAGSTHYVFGTGTKVTVL | 19 fold over isotype
5 | antibody 326 (antibody, V domains shown) VH: QITLKESGPTLVKPTQTLTLTCTFSGFSLNTSGVGVGWIRQPPGKALEWLSLIFWNDDKRYSPSLRSRLTITKDTSKNQVVLTMTNMDPVDTATYFCAHRNSGWSLKFDSWGQGSLVTVSA VL: DIQMTQSPSSVSASVGDRVTITCRARQGISSWLVWYQQKPGKAPKLLIFGASSLQSGVPSRFNASGTGTEFTLTISSLQPEDFATYYCQQADSFPITFGQGTRLEIK | 10.2 fold over isotype
6 | antibody 329 (antibody, V domains shown) VH: EVQLVESGGGLVQPGGSLRLSCAASGFTFSSYWMHWVRQAPGKGLVWVSRINSDGSSTSYADSVKGRFTISRDNAKNTLYLQMNSLRAEDTAVYYCAREGIVATITLDYWGQGTLVTVSS VL: not shown | 10.6 fold over isotype
7 | antibody 345 (antibody, V domains shown) VH: QVQLQESGPGLVKPSQTLSLTCTVSGGSISSGDYYWSWIRQPPGKGLEWIGYIYYSGSTYYNPSLKSRVTISVDTSKNQFSLKLSSVTAADTAVYYCARVGMVDNWNFEGNWFDPWGQGTLVTVSS VL: QSALTQPRSVSGSPGQSVTISCTGTSSDVGGYNYVSWYQQHPGKAPKLMIYDVSKRPSGVPDRFSGSKSGNTASLTISGLQAEDEADYYCCSYAGSVVFGGGTKLTVL | 9.41 fold over isotype
8 | antibody 348 (antibody, V domains shown) VH: QVQLVQSGSELKKPGASVKVSCKASGYTFTSYAMNWVRQAPGQGLEWMGWINTNTGNPTYAQGFTGRFVFSLDTSVSTAYLQISSLKAEDTAVYYCARDHELPNTSSWFGHFEYWGQGTLVTVSS VL: not shown | 14.2 fold over isotype
9 | antibody 363 (antibody, V domains shown) VH: EVQLLESGGGLVQPGGSLRLSCAASGFTFSTYAMSWVRQAPGKGLEWVSAISGSGGSTYYADSVKGRFTISRDNSKNTLYLQMNSLRAEDTAVYYCASGYSPDYWGQGTLVTVSS VL: not shown | 15.1 fold over isotype
10 | antibody 317 (antibody, V domains shown) VH: QVQLVQSGAEVKKPGASVKVSCKVSGYTLTELSMHWVRQAPGKGLEWMGGFDPEDGETIYAQKFQGRVTMTEDTSTDTAYMELSSLRSEDTAVYYCASSPAAAGTSQYYYYYGMDVWGQGTTVTVSS VL: not shown | 10.3 fold over isotype
11 | antibody 316 (antibody, V domains shown) VH: QVHLVESGGGVVQPGRSLRLSCAASGFTLTAYAMHWVRQAPGKRLEWVALISYDGSVKKYADSVKGRITVSGDTSTNTLHLQMNSLRADDTAVYYCVRGGVSGPNSFDLWGQGTMVTVSS VL: DVVMTQSPLSLPVTLGQPASMSCRSSQSLEYSDGNTYVNWFHQRPGQSPRRLIYKVSYRDSGVPDRFSGSGSGTDFTLQISRVEAEDVGIYYCMQGTHWPVTFGQGTKVEIK | 10.4 fold over isotype
12 | antibody 365 (antibody, V domains shown) VH: QVQLVESGGGVVQPGRSLRLSCAASGFNLSSYAMHWVRQASGKGLEWVSLISYDGSIKYYTDSVKGRFTVSGDNSKNTLFLQMNSLRPDDSALYYCVRGGVSGPNSFDMWGQGTTVTVSS VL: DVVMTQSPLSLPVTLGQPASISCRSSQSLVYSDGNTYVNWFQQRPGQSPRRLIYKVSIRASGVPDRFSGSGSGTDFALKISRVEAEDVGVYYCMQGTHWPVTFGQGTKVEIK | 11.2 fold over isotype
13 | antibody 327 (antibody, V domains shown) VH: QVQLVESGGGVVQPGRSLRLSCAASGFNLSNYAMHWVRQASGKGLEWVSLISYDGSIKYYTDSVKGRFTVSGDNSKNTLFLQMNSLRPDDSALYYCVRGGVSGPNSFDMWGQGTTVTVSS VL: DVVMTQSPLSLPVTLGQPASISCRSSQSLVYSDGNTYVNWFQQRPGQSPRRLIYQVSIRASGVPDRFSGSGSGTDFALKISRVEAEDVGIYYCMQGTHWPVTFGQGTKVEIK | 10.4 fold over isotype
14 | antibody 331 (antibody, V domains shown) V domain 1: QITLKESGPTLVKPTETLTLTCSFSGFSLTKTGEAAGWIRQAPGRALEWVTVIFWDDDKRYSPSLQNRISVTKDTSKNQVVLRMTNVARFDTGTYFCWAMGGPGKEYFGQGTLVAVSS V domain 2: QSVLTQPPSVSGAPGQRVTISCTGTSSSIGPYSDVHWYQHVSGKAPRLLIFGNSNRPSGVPDRFSGSKSGTSASLVIAGLQAEDEADYYCQSYDSSLGEIYVFGTGTTVTVL | 18.1 fold over isotype
15 | antibody 339 (antibody, V domains shown) V domain 1: QITLKESGPTLVKPTETLTLTCSFSGFSLTRTGEAAGWIRQAPGRALEWVTVIFWDDDKRYSPSLQSRLTVTKDTSKNQVVLTMTNVARFDTATYFCWAMGGPGKEYFGQGTQVAVSS V domain 2: QSVLTQPPSVSGAPGQRVTISCTGTSSSIGPYSDVHWYQHVSGKAPRLLIFGNSNRPSGVPDRFSGSKSGTSASLVIAGLQAEDEADYYCQSYDSSLGEIYVFGTGTTVTVL | 18.2 fold over isotype
16 | antibody 320 (antibody, V domains shown) VH: QVQLVQSGAEVKKPGASVKVSCKASGYTFTSYGISWVRQAPGQGLEWMGWISAYNGNTNYAQKLQGRVTMTTDTSTRTAYMELRSLRSDDTAVYYCARVGCYYDSSGYSCAENFQHWGQGTLVTVSS VL: QSVLTQPPSVSGAPGQRVTISCTGSSSNIGAGYDVHWYQQLPGTAPKLLIYGNSNRPSGVPDRFSGSKSGTSASLAITGLQAEDEADYYCQSYDSSLSALFGGGTKLTVL | 19.7 fold over isotype
17 | antibody 340 (antibody, V domains shown) VH: QVQLVQSGAEVKKPGASVKVSCKASGYTFTSYDINWVRQATGQGLEWMGWMNPNSGNTGYAQKFQGRVTMTRNTSISTAYMELSSLRSEDTAVYYCARGRYCTGGVCWGDWYFDLWGRGTLVTVSS VL: QSVLTQPPSVSGAPGQRVTISCTGSSSNIGAGYDVHWYQQLPGTAPKFLIYGNSNRPSGVPDRFSGSKSGTSASLAITGLQAEDEADYYCQSYDSSLSGPVFGGGTKLTVL | 26.3 fold over isotype

These binders were tested against SARS-CoV-2 full length spike protein, V483A mutant (SARS-CoV-2, UniProt P0DTC2 14-1273).

Row | Binder | median fold over isotype
18 | antibody 516 (antibody, V domains shown) VH: QVELQQWGAGLLKPSETLSLTCAVYGGSFSGYYWSWIRQPPGKGLEWIGEINHSGSTNYNPSLKSRVTISIDTSKNQFSLKLSSVTAADTAVYYCARGTTVTTFFAPHWYFDLWGRGTLVTVSS VL: QSALTQPASVSGSPGQSITISCTGTSSDVGGYNYVSWYQQHPGKAPKLMIYDVSNRPSGVSNRFSGSKSGNTASLTISGLQAEDEADYYCSSYTSSSTPYVFGTGTKVTVL | 2.61 fold over isotype
19 | antibody 522 (antibody, V domains shown) VH: EVQLVESGGGLVQPGGSLRLSCAASGFNFSSYSMNWVRQAPGKGLEWVSYISSSSSTIYYADSVKGRFTISRDNAKNSLYLQMNSLRDEDTAVYYCARGPEWDIVVVQAENWFDPWGQGTLVTVSS VL: SYELTQPPSVSVSPGQTARITCSGDALPKQYVYWYQQKPGQAPVLVIYKDSERPSGIPERFSGSSSGTTVTLTISGVQAEDEADYYCQSADSSGTYRGVFGGGTKLTVL | 6.75 fold over isotype
20 | antibody 517 (antibody, V domains shown) VH: QVQLVESGGGVVQPGRSLRLSCAASGFNLSNYAMHWVRQASGKGLEWVSLISYDGSIKYYTDSVKGRFTVSGDNSKNTLFLQMNSLRADDSALYYCVRGGVSGPNSFDMWGQGTTVTVSS VL: DVVMTQSPLSLPVTLGQPASISCRSSQSLVYSDGNTYVNWFQQRPGQSPRRLIYQVSIRASGVPDRFSGSGSGTDFALKISRVEAEDVGVYYCMQGTHWPVTFGQGTKVEIK | 11.5 fold over isotype
21 | antibody 523 (antibody, V domains shown) VH: EVQLVESGGVSVQPGGSLRLSCAASGFSFNTYDMHWVRQGTGKGLEWVSGIGTAGDTYYSDSVKGRCTISRDNAKNSLHLLVKSVRAADTAVYYCARGVGGIIDYWGQGTLVTVSS VL: NFVLSQPHSVSESPGKTVTISCTGNSGSIATKYVQWFQQRPGSAPTTVIYEDNQRPSGVPDRFSGSSDSSSNSASLTISGLKTEDEAHYYCQSYHNRRWVFGGGTKLTVL | 3.76 fold over isotype
22 | antibody 514 (antibody, V domains shown) VH: EVQLVQSGAEVKKPGATVKISCKVSGYTFTDYYMHWVQQAPGKGLEWMGLVDPEDGETIYAEKFQGRVTITADTSTDTAYMELSSLRSEDTAVYYCATDCKYDILTGHYSAGYYYYGMDVWGQGTTVTVSS VL: DIQMTQSPSSLSASVGDRVTITCRASQGISNYLAWFQQKPGKAPKSLIYAASSLQSGVPSKFSGSGSGTDFTLTISSLQPEDFATYYCQQYNSYPFTFGGGTKVEIK | 1.39 fold over isotype
